# “And” between values parts separate entries of the source, which are not always exact repeats. Identical values can stand only once.
# B1: Rant17: A2aR mutant A54L + K122A + L235A (protein, UniProt P29274 1-412, looked up, variant A54L K122A L235A)
# Adenosine receptor A2a: MPIMGSSVYITVELAIAVLAILGNVLVCWAVWLNSNLQNVTNYFVVSLAAADILVGVLAIPFAITISTGFCAACHGCLFIACFVLVLTQSSIFSLLAIAIDRYIAIRIPLRYNGLVTGTRAAGIIAICWVLSFAIGLTPMLGWNNCGQPKEGKNHSQGCGEGQVACLFEDVVPMNYMVYFNFFACVLVPLLLMLGVYLRIFLAARRQLKQMESQPLPGERARSTLQKEVHAAKSAAIIVGLFALCWLPLHIINCFTFFCPDCSHAPLWLMYLAIVLSHTNSVVNPFIYAYRIREFRQTFRKIIRSHVLRQQEPFKAAGTSARVLAAHGSDGEQVSLRLNGHPPGVWANGSAPHPERRPNGYALGLVSGGSAQESQGNTGLPDVELLSHELKGVCPEPPGLDDPLAQDGAGVS
# B2: Rant21: A2aR mutant A54L, T88A, V239A + K122A (protein, UniProt P29274 1-412, looked up, variant A54L T88A V239A K122A)
# Adenosine receptor A2a: MPIMGSSVYITVELAIAVLAILGNVLVCWAVWLNSNLQNVTNYFVVSLAAADILVGVLAIPFAITISTGFCAACHGCLFIACFVLVLAQSSIFSLLAIAIDRYIAIRIPLRYNGLVTGTRAAGIIAICWVLSFAIGLTPMLGWNNCGQPKEGKNHSQGCGEGQVACLFEDVVPMNYMVYFNFFACVLVPLLLMLGVYLRIFLAARRQLKQMESQPLPGERARSTLQKEVHAAKSLAIIAGLFALCWLPLHIINCFTFFCPDCSHAPLWLMYLAIVLSHTNSVVNPFIYAYRIREFRQTFRKIIRSHVLRQQEPFKAAGTSARVLAAHGSDGEQVSLRLNGHPPGVWANGSAPHPERRPNGYALGLVSGGSAQESQGNTGLPDVELLSHELKGVCPEPPGLDDPLAQDGAGVS
# B3: Rant19: A2aR mutant A54L, T88A, V239A + A204L (protein, UniProt P29274 1-412, looked up, variant A54L T88A V239A A204L)
# Adenosine receptor A2a: MPIMGSSVYITVELAIAVLAILGNVLVCWAVWLNSNLQNVTNYFVVSLAAADILVGVLAIPFAITISTGFCAACHGCLFIACFVLVLAQSSIFSLLAIAIDRYIAIRIPLRYNGLVTGTRAKGIIAICWVLSFAIGLTPMLGWNNCGQPKEGKNHSQGCGEGQVACLFEDVVPMNYMVYFNFFACVLVPLLLMLGVYLRIFLALRRQLKQMESQPLPGERARSTLQKEVHAAKSLAIIAGLFALCWLPLHIINCFTFFCPDCSHAPLWLMYLAIVLSHTNSVVNPFIYAYRIREFRQTFRKIIRSHVLRQQEPFKAAGTSARVLAAHGSDGEQVSLRLNGHPPGVWANGSAPHPERRPNGYALGLVSGGSAQESQGNTGLPDVELLSHELKGVCPEPPGLDDPLAQDGAGVS
# B4: Rant 5: A2aR mutant A54L/T88A/V239A (protein, UniProt P29274 1-412, looked up, variant A54L T88A V239A)
# Adenosine receptor A2a: MPIMGSSVYITVELAIAVLAILGNVLVCWAVWLNSNLQNVTNYFVVSLAAADILVGVLAIPFAITISTGFCAACHGCLFIACFVLVLAQSSIFSLLAIAIDRYIAIRIPLRYNGLVTGTRAKGIIAICWVLSFAIGLTPMLGWNNCGQPKEGKNHSQGCGEGQVACLFEDVVPMNYMVYFNFFACVLVPLLLMLGVYLRIFLAARRQLKQMESQPLPGERARSTLQKEVHAAKSLAIIAGLFALCWLPLHIINCFTFFCPDCSHAPLWLMYLAIVLSHTNSVVNPFIYAYRIREFRQTFRKIIRSHVLRQQEPFKAAGTSARVLAAHGSDGEQVSLRLNGHPPGVWANGSAPHPERRPNGYALGLVSGGSAQESQGNTGLPDVELLSHELKGVCPEPPGLDDPLAQDGAGVS
# B5: Rag 1: A2aR mutant A184L/R199A/L272A (protein, UniProt P29274 1-412, looked up, variant A184L R199A L272A)
# Adenosine receptor A2a: MPIMGSSVYITVELAIAVLAILGNVLVCWAVWLNSNLQNVTNYFVVSLAAADIAVGVLAIPFAITISTGFCAACHGCLFIACFVLVLTQSSIFSLLAIAIDRYIAIRIPLRYNGLVTGTRAKGIIAICWVLSFAIGLTPMLGWNNCGQPKEGKNHSQGCGEGQVACLFEDVVPMNYMVYFNFFLCVLVPLLLMLGVYLAIFLAARRQLKQMESQPLPGERARSTLQKEVHAAKSLAIIVGLFALCWLPLHIINCFTFFCPDCSHAPLWLMYAAIVLSHTNSVVNPFIYAYRIREFRQTFRKIIRSHVLRQQEPFKAAGTSARVLAAHGSDGEQVSLRLNGHPPGVWANGSAPHPERRPNGYALGLVSGGSAQESQGNTGLPDVELLSHELKGVCPEPPGLDDPLAQDGAGVS
# B6: Nag7m: rat neurotensin receptor mutant F358A+A86L+I260A+F342A (protein, UniProt P20789 1-424, looked up, variant F358A A86L I260A F342A)
# Neurotensin receptor type 1: MHLNSSVPQGTPGEPDAQPFSGPQSEMEATFLALSLSNGSGNTSESDTAGPNSDLDVNTDIYSKVLVTAIYLALFVVGTVGNSVTLFTLARKKSLQSLQSTVHYHLGSLALSDLLILLLAMPVELYNFIWVHHPWAFGDAGCRGYYFLRDACTYATALNVASLSVERYLAICHPFKAKTLMSRSRTKKFISAIWLASALLAIPMLFTMGLQNRSGDGTHPGGLVCTPIVDTATVKVVIQVNTFMSFLFPMLVISILNTVAANKLTVMVHQAAEQGRVCTVGTHNGLEHSTFNMTIEPGRVQALRHGVLVLRAVVIAFVVCWLPYHVRRLMFCYISDEQWTTALFDFYHYFYMLTNALAYVSSAINPILYNLVSANFRQVFLSTLACLCPGWRHRRKKRPTFSRKPNSMSSNHAFSTSATRETLY
# B7: Nag7n: rat neurotensin receptor mutant F358A+H103A+I260A+F342A (protein, UniProt P20789 1-424, looked up, variant F358A H103A I260A F342A)
# Neurotensin receptor type 1: MHLNSSVPQGTPGEPDAQPFSGPQSEMEATFLALSLSNGSGNTSESDTAGPNSDLDVNTDIYSKVLVTAIYLALFVVGTVGNSVTAFTLARKKSLQSLQSTVAYHLGSLALSDLLILLLAMPVELYNFIWVHHPWAFGDAGCRGYYFLRDACTYATALNVASLSVERYLAICHPFKAKTLMSRSRTKKFISAIWLASALLAIPMLFTMGLQNRSGDGTHPGGLVCTPIVDTATVKVVIQVNTFMSFLFPMLVISILNTVAANKLTVMVHQAAEQGRVCTVGTHNGLEHSTFNMTIEPGRVQALRHGVLVLRAVVIAFVVCWLPYHVRRLMFCYISDEQWTTALFDFYHYFYMLTNALAYVSSAINPILYNLVSANFRQVFLSTLACLCPGWRHRRKKRPTFSRKPNSMSSNHAFSTSATRETLY
# Experiments:
# β1AR36-M23 = molecular target: T1, β1AR36-M23 (Meleagris gallopavo, UniProt P07700, A282L/C116L/C358A/DEL244-271/DEL277-278/F327A/F338M/M90V/R68S/Y227A); assay: biochemical; format: binding, turkey; conditions: for kd: 10° C., footnote 1 averaged from two b1AR surfaces, footnote 2 preliminary results
# T1 construct: beta-36 construct (amino acid residues 34-367 of the turkey beta receptor containing the following changes); His6 (C); made in house; host or cells: insect cells, baculovirus (stated for the beta-36 construct in the crystallisation text)
# Description: Binding studies were performed at 10° C. using a Biacore S51 optical biosensor equipped with a streptavidin-coated CM5 chip and equilibrated with running buffer (20 mM trisHCl, 150 mM NaCl, 1 mM EDTA, 1% DMSO, 0.1% decyl maltoside, pH 7.8).
# Flow through of the compound allowed the on rate to be determined. Subsequent washing enabled determination of the off rate. These parameters could then be used to determine a kinetic affinity measurement (Kd).
# [1] = Thermostability of neurotensin receptor and mutants (3H-neurotensin binding); format: physicochemical; conditions: neurotensin bound
# Description: • 1. 340 site-directed mutants have been made between residues 61-400 of NTR. • 2. Initially, all of these mutants were assayed for thermostability using an assay measuring ^3H-neurotensin (agonist) binding after the heating step. […] Mutants tested for thermostability by heating in the absence of the agonist were re-tested using a slightly different assay where the mutants were heated in the presence of ^3H-neurotensin (Ligand(+) format in FIG. 12). […] All of these also have increased thermostability. • 5. Preferred combinations are • a. Nag7m F358A+A86L+I260A+F342A Tm 51° C. (neurotensin bound) • b. Nag7n F358A+H103A+I260A+F342A Tm 51° C. (neurotensin bound)
# [2] = Thermostability of detergent-solubilised βAR34-424 and mutants ([3H]-DHA binding after heating 30 min)
# Description: Binding assays were performed using [^3H]-dihydroalprenolol (DHA) as radioligand as described under “Methods”. Samples were heated for 30 minutes at different temperatures before the assay. […] Data points are from duplicates of one single experiment.
# Single point binding assays contained 20 mM Tris pH 8, 0.4 M NaCl, 1 mM EDTA, 0.1% DDM (or corresponding detergent) with 50 nM [^3H]-DHA and 20-100 μg membrane protein in a final volume of 120 μl; equilibration was for 1 h at 4° C. Thermostability was assessed by incubating the binding assay mix, with or without [^3H]-DHA at the specified temperature for 30 minutes; reactions were placed on ice and [^3H]-DHA added as necessary and equilibrated for a further hour. Receptor-bound and free radioligand were separated by gel filtration as described previously[18]. […] Radioactivity was counted on a Beckman LS6000 liquid scintillation counter and data were analyzed by nonlinear regression using Prism software (GraphPad).
# [3] = Thermostability of solubilised adenosine A2a receptor and mutants; format: physicochemical; conditions: for Tm + agonist / Tm + antagonist / Tm − agonist / Tm − antagonist: 1% DDM, no glycerol; for Tm + agonist: agonist-occupied; for Tm + antagonist: antagonist-occupied; for Tm − agonist / Tm − antagonist: apo-state; for Tm: ZM241385 bound
# Description: • 1. 315 site-directed mutants made between residues 2-316 of A2aR. • 2. All of these mutants have been assayed for thermostability using an assay measuring agonist and antagonist binding after the heating step (Ligand(−) format as described in FIG. 12). • a. […] Mutations have been combined to generate mutants in a putative antagonist conformation. Wildtype A2aR has a Tm of 31° C. with ZM241385 bound.
# [4] = apo-state heated 30 min, E. coli expressed, DDM-solubilised, mean ± S.E. from duplicates
# T1 sequence (P07700 other isoform, or with tags, fused parts or gaps with the stated changes): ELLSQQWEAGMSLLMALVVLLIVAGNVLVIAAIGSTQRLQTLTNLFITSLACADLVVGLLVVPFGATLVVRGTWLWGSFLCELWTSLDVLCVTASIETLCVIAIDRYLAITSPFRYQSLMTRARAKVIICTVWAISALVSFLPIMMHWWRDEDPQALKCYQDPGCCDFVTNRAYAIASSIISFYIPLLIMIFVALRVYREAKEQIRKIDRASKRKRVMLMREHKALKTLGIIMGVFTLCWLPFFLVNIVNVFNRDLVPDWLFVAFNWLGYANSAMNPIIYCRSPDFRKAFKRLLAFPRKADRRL
molecule,measurement,setting,value
OCc1cc(C(O)CNCCCCCCOCCCCc2ccccc2)ccc1O (stereo not drawn) [Salmeterol],Kd,β1AR36-M23,2.5 ± 0.3 µM
same,kd,β1AR36-M23,(9.5 ± 0.4) × 10^−2 s^−1
same,binding strength compared with alprenolol or propranolol,β1AR36-M23; in words,bound the receptor much more weakly
same,dissociation rate compared with the other compounds,β1AR36-M23; in words,dissociated much faster
C=CCc1ccccc1OC[C@@H](O)CNC(C)C [alprenolol],Kd,β1AR36-M23,0.044 ± 0.001 µM
same,kd,β1AR36-M23,(6.3 ± 0.1) × 10^−3 s^−1
Wildtype NTR: wild-type neurotensin receptor [reference compound],Tm,[1],35 °C
"m6-4: βAR34-424 mutant R68S, Y227A, A234L, A282L",Tm,[2]; [4],41.6 ± 0.1 °C
"m6-5: βAR34-424 mutant R68S, A234L, A282L, A334L",Tm,[2]; [4],41.9 ± 0.5 °C
"m6-9: βAR34-424 mutant R68S, Y227A, A234L, A282L, A334L",Tm,[2]; [4],43.7 ± 0.4 °C
"m6-10: βAR34-424 mutant R68S, Y227A, A282L, A334L",Tm,[2]; [4],47.4 ± 1.1 °C
"m7-1: βAR34-424 mutant M90V, A282L, F338M",Tm,[2]; [4],43.0 ± 0.8 °C
"m7-7: βAR34-424 mutant M90V, Y227A, F338M",Tm,[2]; [4],45.2 ± 2.0 °C
"m10-4: βAR34-424 mutant R68S, M90V, V230A, A334L",Tm,[2]; [4],46.9 ± 1.0 °C
"m20: βAR34-424 mutant R68S, M90V, F327A, A334L",Tm,[2]; [4],48.4 ± 0.7 °C
"m23: βAR34-424 mutant R68S, M90V, Y227A, A282L, F327A, F338M",Tm,"[2]; Ni-NTA partially purified, in DDM",52 °C
same,Tm,"[2]; Ni-NTA partially purified, in DM",48 °C
same,Tm,"[2]; Ni-NTA partially purified, in LDAO",23 °C
same,Tm,"[2]; Ni-NTA partially purified, in NG",25 °C
same,Tm,"[2]; Ni-NTA partially purified, in OG",17 °C
same,Tm with antagonist bound,[2]; [3H]-DHA bound during heating,55 °C
same,increase in Tm with bound antagonist,[2]; antagonist bound versus without antagonist,2 °C
same,Tm,[2]; [4],52.8 °C and 52.8 ± 1.4 °C
wt: wild-type human adenosine A2a receptor [reference compound],"Tm, Agonist-binding",[3]; 0.003% LDAO,28 °C
same,"Tm, Antagonist-binding",[3]; 0.003% LDAO,32 °C
same,"Tm, Agonist-binding",[3]; 0.006% FC12,37 °C
same,"Tm, Antagonist-binding",[3]; 0.006% FC12,43 °C
same,"Tm, Agonist-binding",[3]; 0.01% DDM,27 °C
same,"Tm, Antagonist-binding",[3]; 0.01% DDM,25 °C
same,"Tm, Agonist-binding",[3]; 0.1% DM,23 °C
same,"Tm, Antagonist-binding",[3]; 0.1% DM,10 °C
same,"Tm, Agonist-binding",[3]; 0.3% NM,22 °C
same,"Tm, Antagonist-binding",[3]; 0.3% NM,<4 °C
same,"Tm, Agonist-binding",[3]; 0.6% OG,<9 °C
same,Tm + agonist,[3],29 °C
same,Tm + antagonist,[3],32 °C
same,Tm − agonist,[3],21 °C
same,Tm − antagonist,[3],31 °C
same,Tm,[3],31 °C
B1,Tm,[3],Tm 48 °C (ZM241385 bound)
B2,"Tm, Antagonist-binding",[3]; 0.003% LDAO,42 °C
same,"Tm, Antagonist-binding",[3]; 0.006% FC12,49 °C
same,"Tm, Antagonist-binding",[3]; 0.01% DDM,39 °C
same,"Tm, Antagonist-binding",[3]; 0.1% DM,28 °C
same,"Tm, Antagonist-binding",[3]; 0.3% NG,22 °C
same,"Tm, Antagonist-binding",[3]; 0.3% NM,25 °C
same,"Tm, Antagonist-binding",[3]; 0.6% OG,23 °C
same,Tm + antagonist,[3],49 °C
same,Tm − antagonist,[3],41 °C
same,Tm,[3],Tm 49 °C (ZM241385 bound)
B3,Tm,[3],Tm 47 °C (ZM241385 bound)
B4,Tm + antagonist,[3],46 °C
same,Tm − antagonist,[3],42 °C
B5,Tm + agonist,[3],34 °C
same,Tm − agonist,[3],26 °C
B6,Tm,[1],51 °C
B7,Tm,[1],51 °C

# Source: US9260505B2, “Methods for screening for binding partners of G-protein coupled receptors” (Heptares Therapeutics Limited, priority 2007, dated 2016)
